Laboratory results: PMC7039193 (The Journal of Cell Biology, 2019)

Biological target: GST-EVH1 domain of VASP (UniProt P50552 1-113)
Experiment: pull-down

GST-EVH1 domain of VASP, sequence (P50552 1-113): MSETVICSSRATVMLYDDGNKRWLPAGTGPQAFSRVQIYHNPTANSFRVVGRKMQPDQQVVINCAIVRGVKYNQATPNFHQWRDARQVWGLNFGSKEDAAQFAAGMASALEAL

fold change of TRIM9 precipitated, Trim67-/- lysate against WT lysate: ~2 fold
B1: endogenous TRIM9 (mouse embryonic cortex) (natural protein, mouse (endogenous in embryonic cortex), UniProt Q8C7M3 1-817, looked up)
chain: MEEMEEELKCPVCGSFYREPIILPCSHNLCQACARNILVQTPESESPQSRRASGSGVSDYDYLDLDKMSLYSEADSGYGSYGGFASAPTTPCQKSPNGVRVFPPAMPPPPTHLSPALAPVPRNSCITCPQCHRSLILDDRGLRGFPKNRVLEGVIDRYQQSKAAALKCQLCEKAPKEATVMCEQCDVFYCDPCRLRCHPPRGPLAKHRLVPPAQGRVSRRLSPRKVSTCTDHELENHSMYCVQCKMPVCYQCLEEGKHSSHEVKALGAMWKLHKSQLSQALNGLSDRAKEAKEFLVQLRTMVQQIQENSVEFEACLVAQCDALIDALNRRKAQLLARVNKEHEHKLKVVRDQISHCTVKLRQTTGLMEYCLEVIKENDPSGFLQISDALIRRVHLTEDQWGKGTLTPRMTTDFDLSLDNSPLLQSIHQLDFVQVKASSPVPATPILQLEECCTHNNSATLSWKQPPLSTVAADGYILELDDGSGGQFREVYVGKETMCTVDGLHFNSTYNARVKAFNKTGVSPYSKTLVLQTSEAAGAHETKPMKDTDSEEQTLPFPVPSERLPLRRMSPFSSTLNLQPSFPGRSYFDFRSSPHQLSLHSSLQSLNAPGCNFETQSASYSQLVDIKKLLAVAWFAFDPGSAHSDIIFSNDNLTVTCSSYDDRVVLGKTGFSKGVHYWELTIDRYDNHPDPAFGVARIDVMKDMMLGKDDKAWAMYVDNNRSWFMHNNSHTNRTEGGITKGATIGVLLDLNRKTLTFFVNNEQQGPIAFENVEGLFFPAVSLNRNVQVSLWAPGLRACSGCYFKVCPGAVKSPQAPAP
